Source: the RNAGym collection of RNA variant scans (doi:10.1073/pnas.2313332121)
This sample holds only a part of the variants without activity.

B1: TPR 5TU (parent)
chain: GGAUCUUCUCGAUCUAACAAAAAAGACAAAUCUGCCACAAAGCUUGAGAGCAUCUUCGGAUGCAGAGGCGGCAGCCUUCGGUGGCGCGAUAGCGCCAACGUUCUCAACUAUGACACGCAAAACGCGUGCUCCGUUGAAUGGAGUUUAUCAUG

Variants of: B1
Experiment: polymerase ribozyme fitness, log enrichment relative to wild type (log ratio); higher = more active; in vitro selection for triplet polymerase activity
In short: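 Only genotypes with ≥10 input reads and ≥1 read per output were kept after Illumina sequencing of input and output libraries. These libraries were PCR-built, transcribed mutants of each subunit of a heterodimeric triplet polymerase ribozyme, each put through one triplicate in vitro selection round with frozen incubation at −7 °C, gel excision of extended constructs, streptavidin-bead capture and RT-PCR. Fitness is a logarithmic ratio of genotype enrichment to wild-type enrichment, from inverse-variance-weighted replicate averages, with the logarithm in base 2.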

| Variant | polymerase ribozyme fitness (log ratio) |
| --- | --- |
| A47U A121U A147C C149U | -3.04 |
| G46C G136A | -0.148 |
| A47C C93U | -1.69 |
| G46U C72A U90G A97G G100A U104A A107G G124C | ≤ -4.2 |
| A47G G59C G92U C99A C118G | -3.37 |
| A47C G50A U102C U146A | -2.55 |
| A47C A49C U144G | -4 |
| A47C A52G U77G G94U C99U | ≤ -4.2 |
| G46A U56G A91G U148A | ≤ -4.2 |
| A47U C75U | -1.41 |
| U45G G128U | -3.86 |
| A47G A52C A73G C76G C87G A98G | ≤ -4.2 |
| U45G C57U G70C C76A A91G C93A | ≤ -4.2 |
| G46C U61G G81C C114U C116G A147G | ≤ -4.2 |
| G46A U53A G83A U90A G92A U134A | ≤ -4.2 |
| A47U C51U A52C U53G U61A A64U C76U G83U U146C | ≤ -4.2 |
| G46C C57A A66U A113C | ≤ -4.2 |
| G46C C99G U101G C105G G124A | -2.54 |
| A47C A89G C118A G133U | ≤ -4.2 |
| A47C C85U | -1.58 |
| G46C C54U A66G G94A C95A G143A | ≤ -4.2 |
| A47C A122U | -1.45 |
| G46U C103G G124A U151G | ≤ -4.2 |
| G46A C93U | -1.21 |

| Variant | polymerase ribozyme fitness (log ratio) |
| --- | --- |
| A47C C57A C93U | -1.3 |
| A47G G84U C149U | -3.35 |
| A47C C54U G83U A142G | -2.18 |
| A47G A91G A97G G112C | ≤ -4.2 |
| U45G A66U U77C A107G G117U | ≤ -4.2 |
| G46U G59C C96G | -3.41 |
| U45C C57G G59U A66U G94A | ≤ -4.2 |
| A47U G48A U146G | -2.73 |
| U45G C51U C95A C125U | -3.64 |
| U45C G80C C85U C87G G92A U144G | ≤ -4.2 |
| G46A G81A G136A U146A | 0.373 |
| U45G G86U C87A | ≤ -4.2 |
| G46U C87A G88A G143U U148A | ≤ -4.2 |
| A47G U61A | -1.41 |
| G46U G83U | -2.29 |
| A47U A60C C103G A107G | ≤ -4.2 |
| G46C C114U | -3.67 |
| A47C A119G | 0.0948 |
| U45G C54U A119U U146G | -2.19 |
| A47G A91G A97G A98C U134G U139A | ≤ -4.2 |
| U45C U55A | -1.08 |
| A47C G86A C149U | -1.64 |
| G46U C85U A91C | ≤ -4.2 |
| A47G C54G | -0.785 |

| Variant | polymerase ribozyme fitness (log ratio) |
| --- | --- |
| A47C G48U C76G C96U A113C | ≤ -4.2 |
| A47U G86A | -1.08 |
| A47G C75G A107U U135A U148C | ≤ -4.2 |
| U45G U56A C69A C96A C131U G136U | -3.1 |
| A47G U56A U90C G92U U139C | ≤ -4.2 |
| A47C C93A A107G G140U | ≤ -4.2 |
| A47U C96G C116U | -0.28 |
| U45G A66C C76A G86U C96U | ≤ -4.2 |
| G46C U109G | -1.81 |
| A47U G48U G80C C93U | ≤ -4.2 |
| A47C U56A A60G C85U C96U A150U | -0.791 |
| A47G G84A G128C | -3.37 |
| G46C A49C U56A C57U G62A C63A C69U G86C C99U G141C U145G C149U A150U | ≤ -4.2 |
| A47G G58C G112C | -3.97 |
| A47U C57A | 0.807 |
| U45G A47U A49C U61A C76A C87A U146G | ≤ -4.2 |
| A47U G68U | ≤ -4.2 |
| A47C G62A G70A U82A C85U G86A G152C | ≤ -4.2 |
| A47G G58C G65A G141U | -1.24 |
| A47C G65C G88A C103A | ≤ -4.2 |
| G46A C54G C95U | -2.17 |
| A47U A97G A98G C116U A150U | 0.886 |
| G46U U82C C95U | -0.628 |
| A47U C69U C93A A107C A115C | ≤ -4.2 |

| Variant | polymerase ribozyme fitness (log ratio) |
| --- | --- |
| G46C C96U A98U A106G | -0.573 |
| A47C G50C U53A A89G A106U A120C G136A | ≤ -4.2 |
| A47C C85A C96U A97U | ≤ -4.2 |
| U45G G152A | -1.18 |
| G46A G50A C57U A60G G68A G83A G94U G141C | ≤ -4.2 |
| G46U G84C C87G A150G | ≤ -4.2 |
| A47C G59A C72U G81C A89G G128C U134C | ≤ -4.2 |
| G46A A97C C103G C123A G141C A147C C149A | ≤ -4.2 |
| G46C C72U G94A U102C A110G C125G A147C | ≤ -4.2 |
| A47C G59A | 0.309 |
| G46A G84U C99A A110C C114U U146C | ≤ -4.2 |
| U45G U55G A91C U101A A107G | ≤ -4.2 |
| A47C U53C C57A C72G A73C U78C C79U C96G C129A A150G | ≤ -4.2 |
| A47U G94A U134G | -1.69 |
| G46C G68A U101G G117U | ≤ -4.2 |
| G46U G88U | ≤ -4.2 |
| A47U A60C C125U | -2.64 |
| G46U U56A | -0.107 |
| G46C C85U A110U | -4.17 |
| U45G C93A C95U | -3.98 |
| A47C C95U C96U C118U C131U | -1.83 |
| A47U G48C | -1.39 |
| G46A U55A G58C G84C | -2.84 |
| A47C U77G U130G | ≤ -4.2 |

| Variant | polymerase ribozyme fitness (log ratio) |
| --- | --- |
| A47G C63G G92U C93U | -1.34 |
| A47C G126A | 0.0505 |
| G46C U102C G136U | ≤ -4.2 |
| U45G C93A A113U C116U | ≤ -4.2 |
| G46U C51G C54U | ≤ -4.2 |
| U45G C75U C103G C118G | ≤ -4.2 |
| G46U G83U A91U A106U U148C | ≤ -4.2 |
| G46C G86A | -1.59 |
| A47C G83A C99U A120U | -3.03 |
| G46A G68C G83C A147U | ≤ -4.2 |
| G46U G59C C85A A115U | -4.01 |
| A47G U56A U134G | -2.17 |
| A47U C85U | -0.698 |
| U45C U77G C79G | ≤ -4.2 |
| A47U G50C C93A C96G | ≤ -4.2 |
| U45G C103A A150U | ≤ -4.2 |
| G46A C99A C114A C129A G141A | ≤ -4.2 |
| G46C U56A G84A G133C | -2.71 |
| A47C U53A G81A U104G | -1.12 |
| A47U G84C C93U | ≤ -4.2 |
| A47G A52G C87U A98G | -1.52 |
| A47C U134G G136A | -0.632 |
| A47G U90A C95A A98G A138U A147C | ≤ -4.2 |
| A47C U78A C131U U145A | ≤ -4.2 |

| Variant | polymerase ribozyme fitness (log ratio) |
| --- | --- |
| G46A U61G C103A C118G | ≤ -4.2 |
| A47C C69U G80C | ≤ -4.2 |
| U45G G92U C103A U104A | ≤ -4.2 |
| A47C G50U G58U A91G A97U U102A | ≤ -4.2 |
| A47G A52C A97U | -1.2 |
| G46A C54A C76U G143A | ≤ -4.2 |
| G46A C51G U56A G88U G141A | ≤ -4.2 |
| G46C C75U G88A A106U C116G | ≤ -4.2 |
| G46C G59C G88A | ≤ -4.2 |
| U45C U56A A91G U111A | ≤ -4.2 |
| G46A C85A A150C | ≤ -4.2 |
| U45G G48A G88C A106G | ≤ -4.2 |
| A47C A66C G83C U104C G126C U130C C132G A138C | ≤ -4.2 |
| A47C C54U U55A U101C | 0.0498 |
| U45G U53A C75A C93A A113G | ≤ -4.2 |
| A47G G84C | -2.56 |
| A47G G84U | -1.59 |
| U45G C76A G86A G141C C149G | ≤ -4.2 |
| A47G C63G G74C A120G | ≤ -4.2 |
| A47C U82A | -0.366 |
| U45G G84U A113U | -4.1 |
| G46A A52G C85A | -2.54 |
| G46A U55A | -0.993 |
| A47G G50C U82G | ≤ -4.2 |

| Variant | polymerase ribozyme fitness (log ratio) |
| --- | --- |
| G46C C54U G94A C99A A142U U151C | ≤ -4.2 |
| A47C G59A G84U G94U G124A | -3.56 |
| A47C A49C G65A G84A A113G G141A | ≤ -4.2 |
| G46U C57G G70C U78G C87U G88U G143A U144A | ≤ -4.2 |
| G46U G71C C95U A97U A115C G136U | ≤ -4.2 |
| G46A U135G | -3.27 |
| G46C U144C | -1.66 |
| U45G G70A C87U U144G | ≤ -4.2 |
| G46C G59A U82A C85G A110C A113U G126U G128A | ≤ -4.2 |
| U45G C69A | -1.95 |
| A47G G140A | -3.51 |
| A47G A115C | -0.724 |
| G46C G50U A52C A60U G80C C95U A150G | ≤ -4.2 |
| A47C G83C G112C | ≤ -4.2 |
| U45G U53A U56C G84A C125U A137G G140U C149A | ≤ -4.2 |
| A47G A52G G58A A60G G62C U78G G88C | ≤ -4.2 |
| A47U G80A A91C | ≤ -4.2 |
| A47C G81C C99A U134G | -4.06 |
| G46C A52G C63A G71A A110G A113U | ≤ -4.2 |
| G46A C85G A106C C125A | ≤ -4.2 |
| A47C G94A | -2.54 |
| U45G A91C U101G A147C | ≤ -4.2 |
| A47C A91C G112C G133C C149U | ≤ -4.2 |
